# The DeepSol protein solubility set
# Test: soluble on expression in E. coli; label from the status in PepcDB or PDB records
row,Sequence,soluble on expression in E. coli
1,MAELISKEGNKVEFKVSVPAAEVNRAYDQVWAGLARDVRVPGFRPGKAPRKVIENRVGKGYVESQVRDRLLETHYSQGLRELGLNLVDATVDPQDVQSGQAFEFTVKGETYP,soluble
2,MVRLIHTLADHGDDVSCCAFSAALLATCSLDKTIRLYSLSDFAELPYSPLKFHTYAVHCCCFSPSGHVLASCSTDGTTVLWSSHSGHTLTVLEQPGGSPVRVCCFSPDSAYLASGAADGSIALWNAQTYKLYRCGSVKDSSLVACAFSPDGGLFVTGSSGGDLTVWDDRMRCLHSEKAHDLGITCCSFSSQPLSGGEGLQSYQLASCGQDCEIKLWAVTITRVLGFELKYKSTLSGHCAPVLACAFSHDGKMLASGSVDKSVIIHGIGPQSVLHTLTQHTRYVTTCAFAPNTLLLATGSMDKTVNIWQFDLETPCQGSMNDPLKHFTEEWSEEDVSVWLRAQGLEDLVGIFRANNIDGKELLHLTKESLAGDLKIESLGLRSKVLRSIEELRAKMDSLSSGIPDEFICPITRELMKDPVIASDGYSYEREAMESWIHKKKRTSPMTNLALPSLVLTPNRTLKMAINRWLETHEK,soluble
3,MSLNGSRRIPQPIRWAMVGGGSQSQIGYIHRCAALRDNTFVLVAGAFDIDPIRGSAFGEQLGVDSERCYADYLSMFEQEARRADGIQAVSIATPNGTHYSITKAALEAGLHVVCEKPLCFTVEQAENLRELSHKHNRIVGVTYGYAGHQLIEQAREMIAAGELGDVRMVHMQFAHGFHSAPVEAQSQATQWRVDPRQAGPSYVLGDVGTHPLYLSEVMLPDLKIKRLMCSRQSFVASRAPLEDNAYTLMEYEGGAMGMVWSSAVNAGSMHGQKIRVIGSRASLEWWDERPNQLSFEVQGQPAQILERGMGYLHPNALIDDRIGGGHPEGLFEAWANLYYRFALAMDATDRSDTQALSAVRYPGIDAGVEGVRWVERCVLSADNDSIWVAYEGHHHHHH,soluble
4,RKPLQEPCTIFLIANGDLINPASRLLIPRKTLNQWDHVLQMVTEKITLRSGAVHRLYTLEGKLVESGAELENGQFYVAVGRDKFKKLPYGELLFD,soluble
5,MTEAGASIVVTVKNEGKNLRELLESIEKNDFTNFETVVVDDLSTDDTEDIVKSYRFTVYKRIACSRGEGRNIGVDLSRYGYILFTDGDAKVSEHWISGMVSALAAGNDAVIGNTLYTGKRRYMQERVKIFLEGIEVTAPSVNLAYRKDRFRQLGGFDPKFVTAEDIDLNIRAVKAGFRFATCDSCVVYAKVRENLASFLRQAYWNGYGRYQLEMKHPGITRNTRVRLGHNFFDFLHMVSGAAGYLSARISEGKQGRLEHHHHHH,soluble
6,YLGGDLKYYGHTIKKANVQAIINYAVQYNILPSGIITQLYLESFWGDSTVGKRDNNWAGMSGGAQTRPSGVKVTTGMARPANEGGTYMHYASVDDFLKDYTYLLAKQGIYNVVGKKNIADYTKGLFRAGGAKYDYAAAGY,not soluble
7,MSNRVVIDHIGASGHGISNISHDSLSVPFTLPGEVAIVALRGKYGKLIALEKKSSERIDAICQHFENCGGCVLQHWHADAYRSWKRQLVIDALKRYGIDVFVSPLIEGGYQNRRRITLTALATQKGHIVGFNRYLSHDVIALEECPVTRLEIMSKLNSIKLLCALVGNHTKRFQVTVTSVENGLDVAFNGCVVRDEHIRQQMIHTALAYGMTRLSVEGEILVEREKPLVYFGDVCVEFPAGGFLQATFEAENIMGNIILAYLEKAKNAVDLFSGLGTFTLRMAKKMNVHAVENNETALANLDRAARFATGLKTITCERRDLFRRPLSAKELSCFECVVFDPPRAGAQEQVRELAKTTIPRVVTISCNPVTFARDLSLLVAGGYTIEKIIPIDQFLWSPHVEIVALLSKRKIKANWKL,not soluble
8,MDGALLIDKPKGITSTEVVERVKEKLKARKAGHTGTLDPIATGLLIILINKATRFSQFFIGMPKTYRFTVKFGAETDTYDAQGKVVETYEGELNCDKLKEVLNEFRGEILQTPPPFSAKKIKGRRAYELARKGKKVELKPVKITVYSLELLSCNPREKEAEFLAEISSGGYVRSLAYDIGKKLGIGGYMKELRRLKIDEISVEEAVSLEEFLSSENPEEYVLPVDTLFRVIPEVRLNTFEAGKILQGKRILIKNYDYEGLVKIYEDSKFIGIGELKGGVLSPKRLLV,soluble
9,MGSDKIHHHHHHMASHNTTHQMKTLCSSCSLRELCLPVGLLPNELSQLDAVIRQSRRLKKGEYLFCVGEAFTSLFAIRSGFFKTTVASQDGRDQVTGFFMSGELIGMDGICSHVHSCDAVALEDSEVCELPFTHIEELGQNIPSLRTHFFRMMSREIVRDQGVMLLLGNMRAEERIAAFLLNLSQRLYSRGFAANDFILRMSREEIGSYLGLKLETVSRTLSKFHQEGLISVEHKHIKILNLQVLKKMVSGCSHAI,not soluble
10,MARILVIEDEPLVGHMLRRFLERAGHDVVWAPNGEVGLRRLAEGFDLVVCDLIMPGIPGEEVIRRIREEAGPPVLAVSASVSRESQRRALEAGAQAFLGKPFEAQAFLRVVEGLLRGT,soluble
11,MQKPKLGKIKLLSAKEQVAAVLRKAILSRELVEGQEITLEGIAGMVGVSSMPVREAFQILAADGLIKVRPNKGAVVLGINEQTIREHYEIRALLESEAVAKASRPGSDISRIAQVHYAAEKALAENNSAEYSDLNQAFHMEIWNVAGNEKMKMLLCNMWNGLSMGHKVTEEEYAVISIQEHKSILQALELHDETLARQRMREHIIRSMENMLTRYVGDPSA,not soluble
12,MSLSALLNYKLEGSGETVVLIHGLFGSLDNLGLLARDLKNDHQVLSLDLRNHGLSFHSDEHNYALMAQDVNQLLEHLNLTSVVVIGHSMGGKVAMKLADIAAEKVRQLVVLDMSPVAYSQRRHDNVFAGLEAVLVQKPTSRSEVMAILAQHIEQEGVRQFLGKSLMSEQNVMTWRFNVAALKAHYAEILGWDIIAKCRIPTLFIKGADSDYLTTQHQPMVQAQFSQAKAHVIANTGHWLHAEKPAEVIRAIRKFIDVPVEGHHHHHH,soluble
13,MGSDKIHHHHHHMRLPPIDLSRENTFGEISYESGGQYGPIRGDYLAFIIVHLGTLKIEADETVLQLEAGHCALSLTRDSYLTTIAPETLTHISWCDGRPLNAAWLYKERHKYAPFINASTQVQTLMQLGVDLGIGDRDGRGGLREALTNTLLNAYIYEAEVVAEERPIPQTILQARRFLDENFAADVSIERVAQQVRVSPQYLVSAFKKHLGMTPARYLWRCRLDYGAHLLQRSGLSVSEIAYQVGYKNPYHFSRQIKLAFDCSPTELREKMLNG,not soluble
14,MSLANKILTEKDTDQIRFSILASGSSGNATLVETGDQKILIDCGLSGKKMEGLFAQVGRDMNDLDAILITHEHSDHIKGLGVLARKYKLPIYANAKTWKAMDNMIGEVSSDQKFQFDMETVKTFGSMQVESFGVSHDAIEPMFYIFHKGNKKFVMITDTGYVSDRMKGHIAGADAYLFESNHDVEMLRMGRYPWNVKRRILGDEGHVSNEDAAIAMSEVITDQTKRIYLGHLSKDNNMKELARMSVTQTLMAEGIDVGGKLEIFDTDPDNATSIFTEGHHHHHH,not soluble
15,MGIMEAERKTTGWAARDPSGILSPYTYTLRETGPEDVNIRIICCGICHTDLHQTKNDLGMSNYPMVPGHEVVGEVVEVGSDVSKFTVGDIVGVGCLVGCCGGCSPCERDLEQYCPKKIWSYNDVYINGQPTQGGFAKATVVHQKFVVKIPEGMAVEQAAPLLCAGVTVYSPLSHFGLKQPGLRGGILGLGGVGHMGVKIAKAMGHHVTVISSSNKKREEALQDLGADDYVIGSDQAKMSELADSLDYVIDTVPVHHALEPYLSLLKLDGKLILMGVINNPLQFLTPLLMLGRKVITGSFIGSMKETEEMLEFCKEKGLSSIIEVVKMDYVNTAFERLEKNDVRYRFVVDVEGSNLDA,soluble
16,MRNTMRSFILRARSAPTDSQRLLDEIGGKCHTEILAHCMMNSLFTAQSHREDVVIHLVLESTRDYSRTITVEANEISDVGGFHEAALIALLVKALDASVGMGKEQTRVVQPGLTVRTISFEALLGELAEHHSLYMMDKKGDSIRDIKIGPNPCFILTDHIPMPKKSGNSMKRLGVEKISLGPKMLFASQCVTLIHNEIDHQEAGW,soluble
17,MGSDKIHHHHHHAQTKSLHQLQQEFVDLRCGMFIHFNMPTFFNEDWPDPDAAPELFNPVRMDCKQWAKAAKSANMTYGCLTTKHHSGFCIWDTKTTDYSVMSSPFKRDVVKEYADAFRAEGMKVMLYYSILDTHARLRPKCITPQHIEMIKEQLRELLTNYGEITALIIDGWDAPWSRISYDDVPFEDIYRLVKSIQPNCLVMDLNAAKYPAEALFYTDIKSYEQGAGQHISKDTNRLPALSCLPLQQNWFWKESFPTTPVKSPAQMVNDNIIPMGKSYCNFILNVAPNRDGLMDANALKALKEIGKLWKNDGRVATVPEADAPIISSNIAKYQPAEGTWSSDYAIMDFANDDDFGTCWNSNPEVKVPWYSVTFEREKSFNMVVITDRNNDRLQEYRLEYRAGGTWKPLYEGKAPTGLRVKIHRFDTVWGDAVRMTVLNSNGTTSIAEFGVYCERR,not soluble
18,SYMYDRDGSLVSEIVSDHENRVLVPFNKIPEEVKQIFLTSEDRHFYEHKGFDFMGMVPPTASNVKDKKIDQGASTITQQLSRNLYLSHERSFSRKLTELAYSYQLEKKYTKNEILEAYLNTIYFNNGVYGVGSAAQFYFSKPLKSLTVGEMAFICAIPNNPTLYDPLKHF,not soluble
19,MGSDKIHHHHHHMSFLQEINLKLDVFEGPLDLLLHLIQKLEIDIYDIPITAVTEQYMSYIHAMQTLELEVAGEYLVMAATLMAIKSQMLLPKQELEIIDDEDFFEEEDPREALVAQLLEYRKFKYAATVLHEKEEERKLYYTKEPMDMDDYKEEDTTLPPNQINTIDLFLAFHAMLEKKKNRQPVETTVASDDVSIEEKISAISERMRQVQKGKAVSFDSFFDSYSKQEIVTTFMALLELMKTGAIYAEQENNYSEILLFNTETQQEDTTEVEETQ,not soluble
20,QVQLQQPGAELVKPGTSVKLSCKASGYNFTSYWINWVKLRPGQGLEWIGDIYPGSGITNYNEKFKSKATLTVDTSSSTAYMQLSSLASEDSALYYCAGQYGNLWFAYWGQGTLVTVS,soluble
21,MAHHHHHHMCSDVKFSERLTTSPAVVTGFLSPTLRKVMKATMKNSDFNDNTNNSNNMNMFQNLPATLELNPSHTIVTSIYHLKNTNQEVAKLLVQQLYDNACIAAGILEDPRSLLSKLNELLLLTARYAYHYEKKDIQENTKDQPIDVKDNTMAIDNIVNTKENNTNDDSVMKEAQSSNL,soluble
22,MGYNKPAAWKPLDRTDWDVSFSYAYGYDEAQFGGRLAVDGDVSTTWFTWGVVSAGECWWATTLPAPTHLTGFSLTRQTTFGSSYNVREAKVKVKKEGDTEWTEAGLFRFGSFKGNDPQYAVFIPAVENVKEFRIDIVSPADFTGFAELDLYQLEHHHHHH,soluble
23,MSLQTFVIVGHVIPNNDMSPTLNKGDRVIVNKIKVTFNQLNNGDIITYRRGNEIYTSRIIAKPGQSMAFRQGQLYRDDRPVDASYAKNRKIKDFSLRNFKELDGDIIPPNNFVVLNDHDNNQHDSRQFGLIDKKDIIGNISLRYYPFSKWTIQFKSEGHHHHHH,soluble
24,MTYYNVGKIVNTQGLQGELRVLSVTDFADERFKKKSVLALFDDKDNYIMDVEVASHRKHKNFDIVKFKGLYHINDVEKYKGCSLKIAEENLTDLDDGEFYYHEIIGLDVYEGNTLIGQVKEILQPGANDVWVVKRKGKKDLLLPYIPPVVLDVDVAAGRIEVELMEGLDDEDLEHHHHHH,soluble
25,MSTSVKHREFVGEPMGDKEVTCIAGIGPTYGTKLTDAGFDKAYVLFGQYLLLKKDEDLFIEWLKETAGVTANHAKTAFNCLNEWADQFM,not soluble
